# From patent publication US9096835B2, “DNA polymerase” (Medical Research Council, priority 2003, dated 2015)
# Tested on: template containing a single 5-nitroindole
# Assay: 5NI replication assay
# Format: biochemical
# Settings: primer extension, 60° C.
# Description: Primer 26 was ^32P-labeled and annealed to template primer 27 (containing a single 5-nitroindole) in 1× Taq buffer, 0.1 or 0.5 U of the polymerase was added and reactions incubated at 60° C. for 15 mins, after which 40 μM of each dNTP were added and incubation at 60° C. continued for various times.
row,Molecule,bypass of template strand 5NI
1,"M1: Taq mutant G84A, D144G, K314R, E520G, F598L, A608V, E742G; SEQ ID NO: 1 (protein, Mutant Thermus aquaticus DNA polymerase) MRGMLPLFEPKGRVLLVDGHHLAYRTFHALKGLTTSRGEPVQAVYGFAKSLLKALKEDGDAVIVVFDAKAPSFRHEAYGGYKAARAPTPEDFPRQLALIKELVDLLGLARLEVPGYEADDVLASLAKKAEKEGYEVRILTADKGLYQLLSDRIHVLHPEGYLITPAWLWEKYGLRPDQWADYRALTGDESDNLPGVKGIGEKTARKLLEEWGSLEALLKNLDRLKPAIREKILAHMDDLKLSWDLAKVRTDLPLEVDFAKRREPDRERLRAFLERLEFGSLLHEFGLLESPKALEEAPWPPPEGAFVGFVLSRREPMWADLLALAAAAGGRVHRAPEPYKALRDLKEARGLLAKDLSVLALREGLGLPPGDDPMLLAYLLDPSNTTPEGVARRYGGEWTEEAGERAALSERLFANLWGRLEGEERLLWLYREVERPLSAVLAHMEATGVRLDVAYLRALSLEVAEEIARLEAEVFRLAGHPFNLNSRDQLERVLFDELGLPAIGKTEKTGKRSTSAAVLGALREAHPIVEKILQYRELTKLKSTYIDPLPDLIHPRTGRLHTRFNQTATATGRLSSSDPNLQNIPVRTPLGQRIRRAFIAEEGWLLVVLDYSQIELRVLAHLSGDENLIRVFQEGRDIHTETASWMFGVPREAVDPLMRRAAKTINFGVLYGMSAHRLSQELAIPYEEAQAFIERYFQSFPKVRAWIEKTLEEGRRRGYVETLFGRRRYVPDLEARVKSVRGAAERMAFNMPVQGTAADLMKLAMVKLFPRLEEMGARMLLQVHDELVLEAPKERAEAVARLAKEVMEGVYPLAVPLEVEVGIGEDWLSAKE",efficiently bypass template strand 5NI
2,"M4: Taq mutant D58G, R74P, A109T, L245R, R343G, G370D, E520G, N583S, E694K, A743P; SEQ ID NO 2 (protein, Mutant Thermus aquaticus DNA polymerase) MRGMLPLYEPKGRVLLVDGHHLAYRTFHALKGLTTSRGEPVQAVYGFAKSLLKALKEGGDAVIVVFDAKAPSFPHEAYGGYKAGRAPTPEDFPRQLALIKELVDLLGLTRLEVPGYEADDVLASLAKKAEKEGYEVRILTADKDLYQLLSDRIHVLHPEGYLITPAWLWEKYGLRPDQWADYRALTGDESDNLPGVKGIGEKTARKLLEEWGSLEALLKNLDRLKPAIREKILAHMDDLKLSWDRAKVRTDLPLEVDFAKRREPDRERLRAFLERLEFGSLLHEFGLLESPKALEEAPWPPPEGAFVGFVLSRKEPMWADLLALAAARGGRVHRAPEPYKALGDLKEARGLLAKDLSVLALREGLGLPPDDDPMLLAYLLDPSNTTPEGVARRYGGEWTEEAGERAALSERLFANLWGRLEGEERLLWLYREVERPLSAVLAHMEATGVRLDVAYLRALSLEVAEEIARLEAEVFRLAGHPFNLNSRDQLERVLFDELGLPAIGKTEKTGKRSTSAAVLGALREAHPIVEKILQYRELTKLKSTYIDPLPDLIHPRTGRLHTRFNQTATATGRLSSSDPNLQSIPVRTPLGQRIRRAFIAEEGWLLVALDYSQIELRVLAHLSGDENLIRVFQEGRDIHTETASWMFGVPREAVDPLMRRAAKTINFGVLYGMSAHRLSQELAIPYEEAQAFIKRYFQSFPKVRAWIEKTLEEGRRRGYVETLFGRRRYVPDLEARVKSVREPAERMAFNMPVQGTAADLMKLAMVKLFPRLEEMGARMLLQVHDELVLEAPKERAEAVARLAKEVMEGVYPLAVPLEVEVGIGEDWLSAKE",efficiently bypass template strand 5NI
